Source: article PMC6188088

Assays:
[1] = biological target: TnpA^IS1535 C-terminal domain (CTD), residues 51-193 (Mycobacterium tuberculosis); experiment: crystal structure; TnpA^IS1535 CTD (51-193), hanging drop, 0.3 M sodium acetate pH 5.0, 1 mM TCEP mixed with 0.2 M sodium citrate + 20% PEG3350; 2.5 Å; one dimer in the asymmetric unit
[2] = biological target: TnpA^IS1535 single-cysteine mutant Cys162 (three native cysteines replaced with serines) (Mycobacterium tuberculosis); experiment: cross-linking; disulfide cross-linking of cysteine-substituted TnpA^IS1535: oxidation with 0.2 mM diamide at 4°C overnight in 25 mM HEPES pH 7.5, 1 M Na acetate, 20% glycerol; non-reducing SDS-PAGE

**Q.** With “TnpA^IS1535 C-terminal domain (CTD), residues 51-193 (domain or fragment)” as the substance, how does the stoichiometry N [1] read?
**A.** 2

**Q.** “TnpA^IS1535 single-cysteine mutant Cys162 (three native cysteines replaced with serines) (enzyme)” was tested. Which percent disulfide-linked dimers [2] did it give?
**A.** 40%
